Measurements taken from the DeepSol protein solubility set.

Test: soluble on expression in E. coli; label from the status in PepcDB or PDB records

Row | Sequence | soluble on expression in E. coli
1 | MGSDKIHHHHHHMTAEVAIINRSGIALAADSAVTIGRDRVWKNSNKLFHLAPSNDVAVMVFGSGDYCGLPWEVVIKEFRKSLGKTTYSRVEEYVGRFLGFLDDLVVPPTPLADLTGWYIILNAISQTQKAMTASGSLKRRQQLIAAISEKIEEADHYPLLFDGYSRDQYRKKHSQKIKEFMAEELGMHVTQTMHSKMITLCYERSRRAFETKFETGVVFAGYGDSELLPVVIEMCVDGELEGKVRAWQVRENNMNEGGTSGAILPFAQADVANLFVEGTLPQYLSYTRQTLLQTLDLKTAELVKDYVPEPDRVVEMERQKKANRAMVKQFSTDFKQYRHDESVANLLKVVNSLPKEEMAAMAEALVEITSLRRKMDSSLETVGGPVDVAIISKSDGFVWTKRKHYFDVEFNRDFMERRNQRYQGNQDA | not soluble
2 | MGSDKIHHHHHHMTAYNNNAIYFKNIASGSKGNSTFIWDAHDLIVIDFGITMKKFKEAISELTLGGLNKSIFISHEHADHVSGIRSVKKVDGADVYTRPATAEAANIKAYEIDNEVVIGNFEILAFDVPHDAADPVAFTVKWKDLKISVVSDLGTVTENVISNIRDSDILAFESNHDVSMLKTGRYPASLKRRILSQHGHLSNEQSAEAISKAINESTEIVLTHLSQENNKPEIALNEVKSYLKNRDIKYKDVECADQYVGSSLKSLKT | not soluble
3 | MGSDKIHHHHHHMTDEHSVFEYKIGLLAPSRVGKSTLIAGLLTEGQQQLAQDSSVHLLTADRPTKNRLAATYNLVSGALKARMFEPGLVPSTSDPSWFRLLLEARGQDLQIRFDILDYPGAWLEGAGEGTEDEQKWNECEAFLADSSVLILPIDSVLLMDSGDDHAHLLASHLSVFQINQAVLRWAKNRRELSGEPAMIVFCPVKCETYLSDSGSLQDHAGTLRGKVVDQFSDVLKTVRDAAPHAAVRYLPIDTFGCVELVSARWIHAQGSPGGEMLVPKYRVRPPGQIVRKGLDDLLTLLCRQLVDTARAQSERTTAAKQTAALNSRNHAELREGFFRDLWLNFNGERNRRRHTAATDERLFAMSQRTTQSLFDVLTALAGRESGPRLHHLS | not soluble
4 | MGSDKIHHHHHHMTDSDLWIQVSDVRKHYAIGKSGLSDALVSAQSSANTGPGEKIAVDGISLTIRNGERLGIVGRNGAGKSTLLHMVAGLSAPTAGKIDVHGRVTAIMTLGLGLREHASGRENIYIDGEVQGKSRVEIDAVIDEIIEFAELGEFIDMPVRTYSTGMKSRLAFAMISCLEPEILIIDEALSAGDAKFSAKATRKIQEICAKGRIVILVSHSMASIQSMCNRCLWIDQGKIVMDGLPDQVCKAYIDAVRSEDEAKLLERFRDEASTRFSLDGWDVDALYVLQGDTATQRVLLEAGEDALIRTKIQVPTGCEEAQLVMSVTRLDGLVVTQRRIALDKYTEAGVARVQFAMRPLVLGQGVYRLEIAAELGQALVASRSMIFEVFVRQPPTGGVPMLLYPSEATASLLS | not soluble
5 | MGSDKIHHHHHHMTDTAPAANIATLSELLKLSGSQYRLYDIGRLVSELPKEQFEKVELNQLPYPTPTQGCACIAIAFWQKQSSQPYLWLLKLPLDERGLLNQGARNHFIAIIVEALGADLTQETSKKQEELLSSNPYLFTPAQYKLASLNSKIKVDLKQQPSAYFSPFREYLSHGSDWGNWQGVGVQGITDFIARIKHDNHSELLLNALPHLPDEVLSPVCSALENEQYPVVLIDALVSALENALIIPDNSVKTMQLLRSLAANSDHTHVRKVVGQLLSNQEVSSELLITLSGRCWQALADEKMLMCYFEHLLSNNNLPLFSSIFKDLVTIPLIRPVAFQCIRSEDRSPALAQAIGQLLSQT | not soluble
6 | MGSDKIHHHHHHMTESSINLLFSIDNRFVEQFKVTLYSLYQNTSNKNLKIYMLQKELLADHKAIERFCYQLGLSYKPIIIGEEDFKDAPVSDRYPETIYYRLLAQDYLPKSLDKILYLDADILCLNDIAPLYQMDMKNYIYAAASHVSDKSITDIVNKLRLNNFEAEGYFNSGVLLMNLEQCRQKIKPQDIMNYISRKGNTLLLPDQDVLNALYGTKTHLIPDEIYNYDARYNIIYFTRSLGEWDLDWVIENTVFLHFCGKDKPWRKDYKGRYAALYKHYQHRVKILEK | not soluble
7 | MGSDKIHHHHHHMTGKLPKACVIGAGCSGFTTIKRLKDYGIPYDCFEMSDEVGGNWYYKNPNGLSACYESLHIDTSKWRLAFEDFPVPKDWPDFPHHAQLFQYFKDYVDHFGLRPTITFNTKVESAKRTADGLWAVTLSGGETQFYDVLFVCNGHHWDPRVPEYPGEFDGPAFHAHAYCDPFDPVDMRGKNVVVVGMGNSAMDIASELSQRPIAKNLWVSARRGVWVFPKYLNGKPADKTALPAWMPRKLGVALSRSVLKKTIGRMEDYGLPKPDHEPLEAHPSVSGEFLTRAGCGDIKFKPAIKALEGKRVRFTDDSVEDVDAIVFATGYKISFPFFDDPALLPDADHRLPLFKRMMKPEVPNLFYMGLAQPLPTLVNFAEQQAKLAAAYLAGQYALPPPAEMARITAKDEHRHTGHFYDSARHTIQVDFNVYCADLKKEIAKGEARARNAGGKLPVAARAEGQALAAE | not soluble
8 | MGSDKIHHHHHHMTKLMPKFEQHRTDFAYCQTITKRSSSAFYTAFSQLPLERAWSIYAVYAFCRTADDLVDVDHDIDGLMALRQSLTTFANGHVPDHPMWRALAVVFETYDMNLDVFFDMLTGQEQDATFKQPQTQQALEDYCYYVAGSVGLMILPMLATNPQSLVKPAVELGSAMQLTNILRDVGEDYQRGRIYLPSKLLAHYQLNPTDLHGPIPSANFIRLWEHEAQIAMNKYEAALTMMPQIDPVARPSLLAATLLYRELLLIAREQHYPILSQRVFLTDERKTQVLNQVSTKVHELALKEA | not soluble
9 | MGSDKIHHHHHHMTKNHKISVDQLQVGTHISLPVSWKDHPFLFSSFKIKDAAQIELIRHLGITEVFFNPEKSDTQPLALDAIQGDSIDLDDMVDASDTDEMMLLKNEMEVKKQDSIDKQQQMRRSINKTEKQFDRSVAMMRSVVSKLGSRPLNAVNDAKELIHNLTDLLLNSDNLVLHLMGDAKPEEGIYHHSLNVSVLCMLLGKGLGWSREEIELIGIGALFHDVGKLKIPSNILNKRTPLSVPEVNFIKQHPLMSINFLKLADNFPAAAEPLIANHHEFLDGSGSPQGLKADKLDNLSQLIAVVNEYDNLCNGNMQTKGKTPFAALSFLYKNYTKKLNKEYVGRMIKTLGIYPPGCIIELSSGQFGLVMSVNLKNILFPRIMVYDPQVPKDQAPIIDLEQEGIKIVRCLPPAALPENIFKYLNPREKVSYGLGSES | not soluble
10 | MGSDKIHHHHHHMTKPDMSKLASLSPFELKDELIKLASSDADRLMLNAGRGNPNFLATIPRHGFWQLGLFAMRESERSFSYMPEGVGGFPRREGIEERFDLFAREFAHVPGVSFLAGAVSYVRDQLGLNAGAFLYEMCEGILACNYPVPDRMLKLSEVIVGQYIRKEMIGNHPFIGEFDLFAVEGGTAAMTYLFNSIRENHLLKAGDTIALGMPIFTPYIEIPELNDYKLVELSVEADPGERWQYSNKELDKLRDPKVKAFFLVNPSNPPSVRMSDESLEYLASIIEERPDLIILTDDVYGTFADNFVSLFAMCPKNTILVYSFSKYFGATGWRLGVIATHRDNVFDEKIAALPDAARKELHERYTSITTEPDKLKFIDRLVADSRTVALNHTAGLSTPQQVQMVLFSLFSLMDTPDNYKIAMKRLIRNRKAALYREIGIAPEADDPNAVDYYTLLDIEALGGKALGPDFVKWVLASVEPNELLFRLAEDAGVVLLPGRGFGTRHPSGRVSLANLNESDYAKIGRSIRKLFEEYVEKYNEATGNKANKHVVKK | not soluble
11 | MGSDKIHHHHHHMTKRHTETKAYVKTALTTLLTEQSFETLTVSDLTKKAGINRGTFYLHYTDKFDMMNHFKNDTLDDLYRLLNQAEIYTDTRQVLNQTLSYLIEHREFITALATISYLKFPQLIKDFCYQFLTTITGFQDIVTNQYHIPYPYALEVYLASIESIISYWIANGYQETTEEVADIILKAVTLDN | not soluble
12 | MGSDKIHHHHHHMTKSKNNPGRGNTIRESNTMKVMEEIREKIRKAIKEGVSLREIEEIILQEAMMEEREAYLEVEDDHKNGTYFRYLGTGDGVLRLRVPRTRKGGFRPKILPEKYERTSPDYEDFLQQLVLSGMTPSQVKAVLAAKGIPYSEIVMNRVAERISNKLKEYKSRELPHDLLALYIDVKIVKVRISESIMERAIYIAIGVDLEGNKFVLDYEVRDREDLDGWKSFLSGLVSRGVSRVDVIVSDDFSGLDRVVSTLFPSSQHQLCITHMVRNLMRVLPDKEKEELMIRVRDLKSSRNVEEGRKAILSLSQLVQPFSPARAKRLLDAADKYCSFLNFPREIRHYLYTNNTSESFNLTLARFEEELGGYFPSLRSLEVYLYVSIHESNSRWKFRPMSVIRHYSYHLKQLHASRFQVSLDEDF | not soluble
13 | MGSDKIHHHHHHMTKVRVAGFGVSLDGFAAGTAQSLDHPLGVRGEEIFQWFFPTRTFRQMLGKEGGDTGLDDRFAQRAMEGFGAFILGRNMFGPVRGEWPDDQWKGWWGDNPPYHAPTFILTHHARPSIEMLGGTTFHFVTGGIEDALEKARKAAGGKDVKIGGGVKTVKQYVQAGYVDEIHLAFAPVALGQGESLFGGLDLRTLGYQTVEHVPTDRATHIVLAK | not soluble
14 | MGSDKIHHHHHHMTLPMPEKFWDIRIHKVDIHPGVTGLCVGYERGVWRKDQFVRHAMDWLPEFALKESELKGVDSANMVQMVRDAATAIYKSEKFHKRGEFGELFLHMAKRQVFNSIPAVSKIYYKTARNDTVKGFDSVHVVEAEDGLELWLGEVKFYKDLNSAVADVVKELQGHTQTDYLRDEFNLIMNKVDRDWEHYETMKRLMSKNTSLDEVFKRACIPVLLTYESEAICQCSVCDEEYKKLFINEIREAYKLFSSKKLPTDIRIHLFLFPLASKPELIKALDKKLKLWQQL | not soluble
15 | MGSDKIHHHHHHMTLSDPRFISLNQWLNCYFSDDVTPILISGDASFRRYFRVFAHDTSYIIADSPPALVPIAPFIALSSAYAAAGLTVPKVIASDADQGFMLLSDLGDTQLLSVLTDDNVADYYCRALALLPQVATVVESQDPVSGITQPLPLYDEAFVRRELGIFTEWLLARHLQLELGDEERTLVDESFDLLVKNALAQPKVGMHRDFHSRNLMLKDGGLCVIDFQDAVLGPVTYDAVSLLRDCYIRWPQAMVLELIQQHYQQVLESGHLPEGTSFRQYQSWFDLMGLQRHIKAAGIFARLYYRDNKPAYMADIPLTLAYIVDIARMYPELAPFAAWVESRVIPAFNLPLKQQDKQPGSSR | not soluble
16 | MGSDKIHHHHHHMTLTTKTIHVIGASFAGLAFVDKYKDLNPDSQIILIDKESCPNYIPNGINQLFRGDIQDLSDAMWGRACLAAQIESNHRFIQAEVLAIEAPSNTLLLKDSQGRVFEEGYETLVCAMGASPQSHYIETSQTNKVLVTKYYEESQASLKLIEASQEVLVIGAGLIGLDLAYSLSLQGKRVKLIEAAERPDFYQTDAELIAPVMAEMSTHHVTFINNKRVTAIHEIEGKVVAHTEQGDTFQGDLAILAINFRPNTHLLQGQVACALDKTILVNENLQTSQANIYAIGDMVSLHFGILGMDYYTPLINQAMKTGQALALHLAGYPIPPLQTVKVLGSSHFDYYRASVGVTEEEAELYMDTCSYLYQNGDSKNLFWLKLIARKTDGILIGAQLLSKTNALVIANQLGQALALKVTDADLAFQDFLFLQGHSDLAYHLHEACLKLFEKRLRHED | not soluble
17 | MGSDKIHHHHHHMTMIRVNDVLSVGPQPSISEIRSLAGHGFAGMINARPDGEEASQPGNAAEREAAGHADVPYTFIPVTMPTITEADVRAFQRAMADAGGPVFAHCKTGTRALTLYALGEALDGRMSSQDMAALGQKLGIDLSAASRWFEAHRQLRPDVKGFFDPRTGSVQYVVSDPDTRKCAIVDPVLDFDEKSGATTTRNADAMLSYIAENGLSVEWILDTHPHADHFSAAQYLKEKTGAPTAIGAPVVDVQRLWRGIYNWPELRVDGSQWDRLFSDGDTFKVGSMAARVMFSPGHTLASITYVIGNAAFVHDTIFMPDSGTARADFPGGDARVLWKSIQKILDLPDETRLFTGHDYQPGGRAPKWESTVGEQKRANAHLAGVNEEAFAGLRVARDRTLPMPKLILHALQVNIQAGRLPEPEPNGTRYLKFPLDALQGAVW | not soluble
